# Data taken from PMC11459929, “Novel humanized anti-PcrV monoclonal antibody COT-143 protects mice from lethal Pseudomonas aeruginosa infection via inhibition of toxin translocation by the type III secretion system” (Antimicrobial Agents and Chemotherapy, 2024).
# B1: h1F3 Fab (Fab, V domains shown)
# VH: QVQLVQSGAEVKKPGASVKVSCKASGYSFTSYWMHWVRQAPGQGLEWMGEINPSNGRTNYNEKFNTRVTMTRDTSTSTVYMELSSLRSEDTAVYYCVLYGNYVVYYTMDYWGQGTTVTVSS
# VL: DIQLTQSPSFLSASVGDRVTITCSASTSVSYMEWYQQKPGKAPKLLIYTTSKLASGVPSRFSGSGSGTEFTLTISSLQPEDFATYYCHQWRNYPFTFGQGTKLEIK
# notes: Fab part of the heavy chain of h1F3 (humanized from mouse m1F3 by CDR grafting with H93 and H94 back-mutation, human IgG4Pro format); light chain of h1F3 (has the mouse residue Ala at L128); also called Fab fragment of h1F3; pre-optimized COT-143 (Fab); source: papain digestion of h1F3, purified (HiTrap Protein A flow-through, Mono S, Superdex200)
# Molecular target: T1, PcrV (130–263) (Pseudomonas aeruginosa, UniProt G3XD49)
# T1 construct: PcrV, type III secretion system needle-tip protein of Pseudomonas aeruginosa, residues 130Ala-263Asn; also called recombinant PcrV (130–263); partial PcrV (130–263); source: E. coli, purified (Profinity eXact Fusion-Tag system, Superdex75)
# Assay: crystal structure; h1F3 Fab and PcrV (130-263) mixed at a molar ratio of 1:2 in TBS with 0.5 mM TCEP at 4°C overnight, equimolar complex separated by Superdex200; crystals by sitting drop in 0.1 M acetate-Na pH 5.6, 24% PEG3350, 0.125 M CaCl2 at 20°C
# Conditions: both partners purified
binder,measurement,value
B1,binding result,binds
